From article PMC3404119

Experiments:
Her1-GFP (zebrafish) = experiment: MITOMI; conditions: PPARγ-mCherry present; MITOMI in wheat germ TnT SP6 expression extract, 3 h at room temperature; PBS wash of immobilized protein; DNA spotted with 1% BSA; salt and pH not stated
[1] = test system: Her7 (coupled to chip, Fig 2D);Hes6-mCherry (zebrafish;zebrafish); experiment: MITOMI; conditions: MITOMI in wheat germ TnT SP6 expression extract, 3 h at room temperature; PBS wash of immobilized protein; DNA spotted with 1% BSA; salt and pH not stated
Her1 (zebrafish) = experiment: MITOMI (mechanically induced trapping of molecular interactions); GFP-tagged Her protein from wheat germ extract immobilised on the microfluidic chip surface with anti-GFP antibody and washed with PBS; mCherry-tagged protein expressed on chip in wheat germ extract with 250 nM Cy5-labelled DNA oligomer; 3 h at room temperature; slope of free against bound mCherry signal as relative affinity

Row | fold lower relative affinity than the Her1 homodimer (Her1-mCherry on Her1-GFP) (Her1 (zebrafish)) [fold] | Substance | binding signal (relative to seq 2) (Her1-GFP (zebrafish)) | binding signal (relative to seq 2) [1]
1 | – | seq 46 (control) | 0.0105 | 0.0131
2 | 3 | MyoD (myogenic differentiation 1) (from UniProt Q90477 1-275) (natural protein) | – | –
3 | – | seq 47 (control) | 0.0105 | 0.0137
4 | 3 | Her7 (natural protein) | – | –
